Laboratory results from the supplement of paper PMC11246515.
± gives the standard deviation of the averaged measurements.

Test: total protein half-life in vivo (active degradation + dilution); higher = more stable protein
[1] = E. coli NCM3722 delta-clpP, growth: N-lim chemostat, doubling time 6 h
[2] = E. coli NCM3722 delta-hslV, growth: N-lim chemostat, doubling time 6 h
[3] = E. coli NCM3722 delta-lon, growth: N-lim chemostat, doubling time 6 h
[4] = E. coli NCM3722 delta-smpB, growth: N-lim chemostat, doubling time 6 h
[5] = wild type E. coli NCM3722, growth: C-lim chemostat, doubling time 3 h
[6] = wild type E. coli NCM3722, growth: C-lim chemostat, doubling time 6 h
[7] = wild type E. coli NCM3722, growth: C-lim chemostat, doubling time 12 h
[8] = wild type E. coli NCM3722, growth: N-lim chemostat, doubling time 6 h
[9] = wild type E. coli NCM3722, growth: P-lim chemostat, doubling time 6 h
[10] = wild type E. coli NCM3722, growth: P-lim chemostat, doubling time 12 h
[11] = E. coli NCM3722 delta-clpP delta-lon delta-hslV, growth: N-lim chemostat, doubling time 6 h
[12] = wild type E. coli NCM3722, growth: N-lim chemostat, doubling time 12 h

P0ABR5, sequence (chain, as listed by the source): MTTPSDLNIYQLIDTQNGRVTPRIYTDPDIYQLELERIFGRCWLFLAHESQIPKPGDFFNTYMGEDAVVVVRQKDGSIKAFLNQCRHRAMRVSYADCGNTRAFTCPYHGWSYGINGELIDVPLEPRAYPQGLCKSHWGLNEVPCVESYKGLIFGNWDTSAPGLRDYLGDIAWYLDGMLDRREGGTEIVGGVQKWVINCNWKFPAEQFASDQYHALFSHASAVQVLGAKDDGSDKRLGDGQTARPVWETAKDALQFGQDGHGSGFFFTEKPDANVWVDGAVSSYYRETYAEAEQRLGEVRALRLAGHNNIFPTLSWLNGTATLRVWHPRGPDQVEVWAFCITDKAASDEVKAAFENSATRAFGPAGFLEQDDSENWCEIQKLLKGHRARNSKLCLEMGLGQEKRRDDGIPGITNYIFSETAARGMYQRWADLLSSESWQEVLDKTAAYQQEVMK
P0ADC1, sequence (chain, as listed by the source): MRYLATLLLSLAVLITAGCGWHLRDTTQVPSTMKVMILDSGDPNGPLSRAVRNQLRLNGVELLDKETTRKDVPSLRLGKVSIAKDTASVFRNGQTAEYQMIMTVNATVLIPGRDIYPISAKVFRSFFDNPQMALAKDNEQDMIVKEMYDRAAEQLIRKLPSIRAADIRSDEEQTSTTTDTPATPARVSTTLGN

For “MYTRNLLWLVSLVSAAPLYAADVPANTPLAPQQVFRYNNHSDPGTLDPQKVEENTAAQIVLDLFEGLVWMDGEGQVQPAQAERWEILDGGKRYIFHLRSGLQWSDGQPLTAEDFVLGWQRAVDPKTASPFAGYLAQAHINNAAAIVAGKADVTSLGVKATDDRTLEVTLEQPVPWFTTMLAWPTLFPVPHHVIAKHGDSWSKPENMVYNGAFVLDQWVVNEKITARKNPKYRDAQHTVLQQVEYLALDNSVTGYNRYRAGEVDLTWVPAQQIPAIEKSLPGELRIIPRLNSEYYNFNLEKPPFNDVRVRRALYLTVDRQLIAQKVLGLRTPATTLTPPEVKGFSATTFDELQKPMSERVAMAKALLKQAGYDASHPLRFELFYNKYDLHEKTAIALSSEWKKWLGAQVTLRTMEWKTYLDARRAGDFMLSRQSWDATYNDASSFLNTLKSDSEENVGHWKNAQYDALLNQATQITDATKRNALYQQAEVIINQQAPLIPIYYQPLIKLLKPYVGGFPLHNPQDYVYSKELYIKAH”, the “total protein half-life in vivo” value [1] was 5.575 ± 0.035 h, the “total protein half-life in vivo” value [2] was 6.61 ± 1.4 h and the “total protein half-life in vivo” value [3] was 6.72 ± 0.075 h. For the same substance, the “total protein half-life in vivo” value [4] was 5.64 ± 0.24 h, the “total protein half-life in vivo” value [5] was 2.9 ± 0.11 h and the “total protein half-life in vivo” value [6] was 5.96 ± 0.64 h. The “total protein half-life in vivo” value [7] was 11 ± 0.65 h, the “total protein half-life in vivo” value [8] was 5.531 ± 0.0077 h and the “total protein half-life in vivo” value [9] was 5.83 ± 0.61 h. The “total protein half-life in vivo” value [10] was 11.7 ± 0.71 h.

With “MYVAVKGGEKAIDAAHALQESRRRGDTDLPELSVAQIEQQLNLAVDRVMTEGGIADRELAALALKQASGDNVEAIFLLRAYRTTLAKLAVSEPLDTTGMRLERRISAVYKDIPGGQLLGPTYDYTHRLLDFTLLANGEAPTLTTADSEQQPSPHVFSLLARQGLAKFEEDSGAQPDDITRTPPVYPCSRSSRLQQLMRGDEGYLLALAYSTQRGYGRNHPFAGEIRSGYIDVSIVPEELGFAVNVGELLMTECEMVNGFIDPPGEPPHFTRGYGLVFGMSERKAMAMALVDRALQAPEYGEHATGPAQDEEFVLAHADNVEAAGFVSHLKLPHYVDFQAELELLKRLQQEQNHG” the “total protein half-life in vivo” value [9] was 0.609 ± 0.46 h and the “total protein half-life in vivo” value [10] was 1.36 ± 0.41 h.

With “MYYGFDIGGTKIALGVFDSGRQLQWEKRVPTPRDSYDAFLDAVCELVAEADQRFGCKGSVGIGIPGMPETEDGTLYAANVPAASGKPLRADLSARLDRDVRLDNDANCFALSEAWDDEFTQYPLVMGLILGTGVGGGLIFNGKPITGKSYITGEFGHMRLPVDALTMMGLDFPLRRCGCGQHGCIENYLSGRGFAWLYQHYYHQPLQAPEIIALYDQGDEQARAHVERYLDLLAVCLGNILTIVDPDLVVIGGGLSNFPAITTQLADRLPRHLLPVARVPRIERARHGDAGGMRGAAFLHLTD” the “total protein half-life in vivo” value [11] was 4.42 ± 0.85 h, the “total protein half-life in vivo” value [2] was 3.76 ± 0.45 h and the “total protein half-life in vivo” value [3] was 4.37 ± 0.18 h. The “total protein half-life in vivo” value [4] was 4.06 ± 0.31 h, the “total protein half-life in vivo” value [5] was 2.86 ± 0.4 h and the “total protein half-life in vivo” value [6] was 4.98 ± 0.17 h. For the same substance, the “total protein half-life in vivo” value [7] was 9.97 ± 0.28 h, the “total protein half-life in vivo” value [8] was 3.9761 ± 0.0021 h and the “total protein half-life in vivo” value [12] was 6.67 ± 1.1 h. The “total protein half-life in vivo” value [9] was 6.09 ± 0.9 h and the “total protein half-life in vivo” value [10] was 11.7 ± 0.2 h.

With P0ABD3 the “total protein half-life in vivo” value [1] was 5.98 ± 0.58 h, the “total protein half-life in vivo” value [2] was 6.83 ± 1.2 h and the “total protein half-life in vivo” value [3] was 6.67 ± 0.28 h. The “total protein half-life in vivo” value [4] was 6.17 ± 0.69 h, the “total protein half-life in vivo” value [6] was 6.73 ± 1.5 h and the “total protein half-life in vivo” value [7] was 11.4 ± 1.6 h. The “total protein half-life in vivo” value [8] was 5.57 ± 0.29 h, the “total protein half-life in vivo” value [12] was 13.5 ± 2.1 h and the “total protein half-life in vivo” value [9] was 5.92 ± 0.82 h. The “total protein half-life in vivo” value [10] was 13.2 ± 0.8 h.

For P0ABR5, the “total protein half-life in vivo” value [11] was 6.36 ± 1.3 h, the “total protein half-life in vivo” value [5] was 1.02 h and the “total protein half-life in vivo” value [6] was 2.09 h. The “total protein half-life in vivo” value [7] was 3.87 ± 2.6 h, the “total protein half-life in vivo” value [9] was 1.661 ± 0.003 h and the “total protein half-life in vivo” value [10] was 2.48 ± 0.059 h.

For P0ADC1, the “total protein half-life in vivo” value [11] was 6.56 ± 1.7 h, the “total protein half-life in vivo” value [2] was 6.27 ± 0.14 h and the “total protein half-life in vivo” value [4] was 6.59 ± 0.86 h. For the same substance, the “total protein half-life in vivo” value [5] was 2.97 ± 0.026 h, the “total protein half-life in vivo” value [6] was 6.71 ± 0.69 h and the “total protein half-life in vivo” value [7] was 12.9 ± 0.43 h. The “total protein half-life in vivo” value [8] was 6.33 ± 0.095 h, the “total protein half-life in vivo” value [12] was 11.7 ± 1.9 h and the “total protein half-life in vivo” value [10] was 12.7 ± 0.69 h.

For P0CK95, the “total protein half-life in vivo” value [5] was 2.75 h, the “total protein half-life in vivo” value [9] was 6.26 ± 0.39 h and the “total protein half-life in vivo” value [10] was 13 ± 0.41 h.

For P30015, the “total protein half-life in vivo” value [11] was 6.18 ± 0.094 h, the “total protein half-life in vivo” value [1] was 5.87 ± 0.33 h and the “total protein half-life in vivo” value [2] was 5.75 ± 0.43 h. For the same substance, the “total protein half-life in vivo” value [3] was 5.14 ± 0.24 h, the “total protein half-life in vivo” value [4] was 4.71 ± 0.31 h and the “total protein half-life in vivo” value [5] was 2.92 h. For the same substance, the “total protein half-life in vivo” value [6] was 6.31 ± 0.44 h, the “total protein half-life in vivo” value [7] was 11.4 ± 3.1 h and the “total protein half-life in vivo” value [8] was 5.5 ± 0.47 h. For the same substance, the “total protein half-life in vivo” value [12] was 9.93 ± 0.82 h, the “total protein half-life in vivo” value [9] was 5.97 ± 0.43 h and the “total protein half-life in vivo” value [10] was 11.8 ± 0.42 h.

With P77704 the “total protein half-life in vivo” value [11] was 6.54 ± 0.9 h, the “total protein half-life in vivo” value [2] was 1.5 h and the “total protein half-life in vivo” value [3] was 2.26 h. For the same substance, the “total protein half-life in vivo” value [4] was 1.31 h, the “total protein half-life in vivo” value [8] was 1.53 ± 0.3 h and the “total protein half-life in vivo” value [12] was 2.2 h.
